Laboratory results as given in the DeepSol protein solubility set.

Test: soluble on expression in E. coli; label from the status in PepcDB or PDB records

Sequence	soluble on expression in E. coli
MNLKEFIIPAIDLMEGKAVRLYKGDFNKVKVYSERPWELAKNFSDLGFKRLHVVDLEGAEGGKPKNLEVIRKIRENFEGEVEVGGGIRSYEVAKALFDEGIDFVVIGTLAYKNKEEFLKILENFPNRVILAIDSKQGKVAIGGWKEETAVSPEEFAKEYENYPIWGYLYTVIERDGSLEGVDVEPYKEIKKHVKKPVIASGGVSSLEDIKKLYGIVEGVVVGKAIYEGRITLEDLQNF	soluble
GSHMGPVEILPFLYLGSAYHASKCEFLANLHITALLNVSRRTSEACMTHLHYKWIPVEDSHTADISSHFQEAIDFIDCVREKGGKVLVHSEAGISRSPTICMAYLMKTKQFRLKEAFDYIKQRRSMVSPNFGFMGQLLQYESEILPSTPNPQPPSCQGEAAGSSLIGHLQTLSPDMQGAYCTFPASVLAPVPTHSTVSELSRSPVATATSC	soluble
MKDVSTDAPVDSARIINGKFAFADTTKIENPVIKILSIHASKMGLEYRLPVVIENGTIKASIADVVCTEGTMLNERMQDFLLAIDAYSAACTDKPVEQIKSGFSELLKRYIEMNNDNVIGTYIQTAYQSSL	not soluble
MGSDKIHHHHHHMKRRELLVLGGLSTIAAGMGRQWFQPVSAQAITPLPASDRPLDLRFIAVADTGTGARGQYDVAAAMERYRRANPYKLAVLAGDNIYNNGEIEKIQAVFERPYAPLLKSGVKFRAVLGNHDIRTNNGNDQVRYPGFNMTGRYYQFQEGPVAFFALDTNGNADWNKQLTWLDRALQASNAPWKVVFGHHPIYSSGFYGVNRTLLGRLVPLFKRHGVQLYISGHDHSYERTQPIDGTTYLIVGAGAGLRPVGRSSWTAQSASTLSFAGLEVYGNELRIQTFDKDSRLIDQGQIFA	not soluble
QDSTSDLIPAPPLSKVPLQQNFQDNQFHGKWYQVGRAGNAALREDKDPQKMTAQIYELKEDKSYNVTAVRFRKKKCDYATMTFVPGSQPGEFTLGNIKSYPGLTSYLVRVVSTNYNQHAMVFFKKVSQNREYFSITLLGRTKELASELKENFIRFSKSLGLPENHIVFPVPIDQCIDGSAHHHHHH	soluble
MDLTHFQDGRPRMVDVTEKPETFRTATAEAFVELTEEALSALEKGGVGKGDPLVVAQLAGILAAKKTADLIPLCHPLPLTGVEVRVELLKAEKRVRIEATVKTKAETGVEMEAMTACAVAALTVYDMLKAASKGLVISQVRLLHKAGGKSGEWRREQ	soluble
MSQFEKQKEQGNSLFKQGLYREAVHCYDQLITAQPQNPVGYSNKAMALIKLGEYTQAIQMCQQGLRYTSTAEHVAIRSKLQYRLELAQGAVGSVQIPVVEVDELPEGYDRS	not soluble
MSLQRPLGNHHDGPDTLLVTSDATQTELVTAETEKLRELITRARFVLFDFDGPICRLFAGHKAERVAVELVEWLEGRGLHALLSETEREALDPHIVLRAVDRRHPGSDLVAELEERLTKQELRAASSAMPTAYADPLIRTWTAVGARLAIATNNSPRVARKYVASRGLSACFAPHIYGRTQDLHLLKPDPHCLNRALNAMGAAPSASLMIGDTPSDYFAAQRAGVPFLGYARNDRKEKLLKEAGAEEIVGSLELVLRVLREQSASAREGHHHHHH	soluble
MGSDKIHHHHHHEDDLSAKAWLKNMSQAMHDKQYKTSIIQLQADHIRPLVYIHGIVDNKEVALLEYLNGPPKNAVRVGNTVTFIEHDQPAYSVVAPRIQGIWPAALAGDLSQLEKGYQFVIGGRGRIAGRPGQMIRLLANDDNRYDAQVWIDMDTYLPLRFDSLNKEKQLLEQTMVIELIELTEPANILIEAAKQEWPAVMNQAERTDGKNWQFTWLPEGFDVVVRDHHRLIGIHEPVEYVALTDGLANISVYVARAGENPMPNELLIRNGLSMVVVKVGTLEVVAIGKVPSETLDKIANSLVLK	not soluble
MNRSRDKVRCALNHQNAGSIPVDFGSTAVTGIHCRIVEALRNYYGLAPRPVKIVDAFQMLGEIDAELAEKIGVDCIGIGGPKDIFDLDTTRMHEQTTPWGQRVLVPEAMDLTPDMRGDVYVYAGGDQNYPPSAVMPKGCYFINAIERQQPIEEDRLDPEDNVEEFGLLTENDLAYYCAEADKAYQTGRAVVASFGGTALGDVAFVPGMGLKQPKGIRSVVEWYMSTAMRQDYLHQVFEKEIDIAIANYEKLWAALGDKIDVVLTCGTDFGSQESQFCSIDTFRELWLPHYRRMNDWIHQHTTWKIFKHSCGAIIPILPGLIEAGFDIINPVQINAKDMDSRRLKEEFGSQLTFWGGGVDTQKILPFGTPDEIRRHVMGQCEILGRDGGFVFNAVHNVQANVPVDNVVAMFDALKDISLEHHHHHH	not soluble
MKSLGNRQRFLRRAREELKRSIRDKVRAGGIAELDREHVVPIPRKGTGEPTFGDDKESGRRQHILPGNRTFSSGDLIPKPGGGGGYGSAAGTTESEDDFRFVLSREEVLDLFFEDLELPDLVKLNLKQVLSFKPRRAGFAASGAPTNINVGRTMRNSHGRRIALRRPKQAELDAIARQIAELEAKPASALVRERIAALREALDRLERRRKRIAYVDPVDIRFNRFDPQPLPNANAVMFCLMDVSGSMGEREKDLAKRFFVLLHLFLTRRYERTDIVFIRHTHLAKEVDEHTFFYHTESGGTVVSTALEEMHRIIEQRYPVAEWNIYAAQASDGDNFAGDSERCIELLDRKLMRLCQYFAYVEIIDERESHIFGATENGTSLWRAYNAVDGKWPNFQMRRIAAPADIYPVFRQLFARQPDLRKSALEHHHHHH	soluble
MEKVVCIGCGVTIQTEDKTGLGYAPPASLTKENVICQRCFRLKNYNEIQDVSLTDDDFLNILHGIGETDSLVVKIVDIFDFNGSWINGLQRLVGGNPILLVGNKADILPKSLKRERLIQWMKREAKELGLKPVDVFLVSAGRGQGIREVIDAIEHYRNGKDVYVVGCTNVGKSTFINRIIKEVSGEEDIITTSQFPGTTLDAIEIPLDDGSSLYDTPGIINNHQMAHYVNKKDLKILSPKKELKPRTFQLNDQQTLYFGGLARFDYVSGERSPFICYMPNELMIHRTKLENADALYEKHAGELLTPPGKDEMDEFPELVAHTFTIKDKKTDIVFSGLGWVTVHDADKKVTAYAPKGVHVFVRRSLI	not soluble
SNAMAVETLYRSTRDLETTFVDRKLADAHDQMLELAELLTDVLIKNVPGLSEKHAEDASIYMAKNRAVFAAAFKNNATALSELSEPAESEG	soluble
TRAMEEALFQHFMHQKLGIAYAIHKPFPFFEGLLDNSIITKRMYMESLEACRNLIPVSRVVHNILTQLERTFNLSLLVTLFSQINLREYPNLVTIYRSFKRVGASY	not soluble
MSTESSHQVHTATVPVRWTDFDRFGHVTNSAYVDLAQEARTVWANDNFAVKGHQIPAVFVRHIEVDYLRPIMPSTSQVVVETEVVHIGNTSFTTRQHLKDGEGHVCATVIAVQVAVDMLTTRPRAIAAHELQVLTQFAASTQQESEQ	not soluble
GPGSMCTAHSQSYLPLPPPTRTSTHTLTANVTQLRCRRRCVTPAIRTSRPPPAVAPPAALPAAHRPCICLLLHDLSPLPLLVLPPSLPLCAAPLHAAAHLPSHRTPSRPPMSAYHSSNPVEARRAECARLQAKYPGHVAVVVEAAEKAGSKVHFLALPRDATVAELEAAVRQALGTSAKKVTLAIEGSTPAVTATVGDIADACKRDDGFLYVSVRTEQAMGGIAGLCFASDSGGI	not soluble
RMALDEVWDSSHFALQPGRAEDGPGASLALRILAARLPDSGVYVCHARNAHGHAQAGALLQVHQPPESPPADPDEAPAPVVEPLKCAPKTFWVNEGKHAKFRCYVMGKPEPEIEWHWEGRPLLPDRRRLMYRDRDGGFVLKVLYCQAKDRGLYVCAARNSAGQTLSAVQLHVKEPRLRFTRPLQDVEGREHGIAVLECKVPNSRIPTAWFREDQRLLPCRKYEQIEEGTVRRLIIHRLKADDDGIYLCEMRGRVRTVANVTVKGPILKRLPRKLDVLEGENAVLLVETLEAGVEGRWSRDGEELPVICQSSSGHMHALVLPGVTREDAGEVTFSLGNSRTTTLLRVKCVKHSPPGPPILAEMFKGHKNTVLLTWKPPEPAPETPFIYRLERQEVGSEDWIQCFSIEKAGAVEVPGDCVPSEGDYRFRICTVSGHGRSPHVVFHGSAHLVPTARLVAGLEDVQVYDGEDAVFSLDLSTIIQGTWFLNGEELKSNEPEGQVEPGALRYRIEQKGLQHRLILHAVKHQDSGALVGFSCPGVQDSAALTIQESPVHILSPQDKVSLTFTTSERVVLTCELSRVDFPATWYKDGQKVEESELLVVKMDGRKHRLILPEAKVQDSGEFECRTEGVSAFFGVTVQDPPVHIVDPREHVFVHAITSECVMLACEVDREDAPVRWYKDGQEVEESDFVVLENEGPHRRLVLPATQPSDGGEFQCVAGDECAYFTVTITDVSSWIVYPSGKVYVAAVRLERVVLTCELCRPWAEVRWTKDGEEVVESPALLLQKEDTVRRLVLPAVQLEDSGEYLCEIDDESASFTVTVTEPPVRIIYPRDEVTLIAVTLECVVLMCELSREDAPVRWYKDGLEVEESEALVLERDGPRCRLVLPAAQPEDGGEFVCDAGDDSAFFTVTVTEPPVQFLALETTPSPLCVAPGEPVVLSCELSRAGAPVVWSHNGRPVQEGEGLELHAEGPRRVLCIQAAGPAHAGLYTCQSGAAPGAPSLSFTVQVAEPPVRVVAPEAAQTRVRSTPGGDLELVVHLSGPGGPVRWYKDGERLASQGRVQLEQAGARQVLRVQGARSGDAGEYLCDAPQDSRIFLVSVEEPLLVKLVSDLTPLTVHEGDDATFRCEVSPPDADVTWLRNGAVVTPGPQRQSCCSYGGCRMCGQRKARTCVSKWRQAEWVQRGPCAGCEVGSPCPTTLACPWPRMGTSTASSSMVSYWPTRAPTAARATTIAPWPGSA	soluble
SLGSQGSGLEQSSFQWSPSGRRTGSLYCRVGIGFHLQIYPDGKVNGSHEANMLSVLEIFAVSQGIVGIRGVFSNKFLAMSKKGKLHASAKFTDDCKFRERFQENSYNTYASAIHRTEKTGREWYVALNKRGKAKRGCSPRVKPQHISTHFLPRFKQSEQPELSFTVTVPEKEG	soluble
AEIKNVILMIGDGMGPQQVGLLETYANQAPNSIYKGNKTAIYQLAQEGVIGSSLTHPEDAIVVDSACSATMLATGIYSSSEVIGIDSQGNHVETVLEKAKKAGKATGLVSDTRLTHATPASFAAHQPHRSLENQIASDMLATGADVMLSGGLRHWIPKSTNDKGETYKQLEKLTQGDVYLKSKRKDDRNLLTEAEKDGYQLAFNRNMLDDAKGDKLLGLFAYSGMDDGIAYSNKKKSGERTQPSLKEMTQKALNILSKDEDGFFLMVEGGQIDWAGHSNDAGTMLHELLKFDEAIQTVYEWAKDREDTIVIVTADHETGSFGFSYSSNDLPKPQKRSGEAFADRDYAPNFNFGAFDILDGLYNQKQSYYGMISEFQKLDKSLQTPEKLAEIVNKNSEFPITAEQAKNVLASKPNPYRLAQHKYLSAEEVPAINDFDAFFPYNDRGNLLAREQATGQNIVWGTGTHTHTPVNVFAWGPAEKILPVSKIMHHSELGEYIKQQVN	soluble
MAHHHHHHMVTAVASVVFARFLRQRYPTVQRVSQYENLSTSPDAPCFVANRILTMTSSQAGTHADGPHHFCRSLSHRNYDDAHYSGDAVVLDIATELREHHQSLDPDASLAITVEVLEKARVKLPAAFRDGSRPVWRLLLVTRHSTATSPTSASATEALTGPPRVFFPLDVASPTQVATVGVKGGTAATLAEPSSNAYAFLYPEAVDYLHRVFPRLVLLGIDSPSVDLPQAMPPGQHSHGALLRCGIAILENLRYTRLSPLLESPAGNNQRGWISGSMLTVFNATQNYDDARGCSVIFFPEEAL	soluble
MGSDKIHHHHHHMAAKPPLTLYLAAPRGFCAGVDRAIKIVEMALEKWGAPVYVRHEIVHNKFVVDGLRDKGAVFVEELEECPDDRPVIFSAHGVPKSVPAAAEARQMVYVDATCPLVSKVHIEAQRHAEAGLQMIMIGHKGHPETVGTMGQLPEGEVLLVETVEDVAQVEVRDPERLAFVTQTTLSVDDTKDIVAALQARFPAIVGPHKEDICYATTNRQEAVKEVAPKADALLVVGAPNSSNSRRLVEVGAKNGCSYAQLVQRAENIDWRALEGIQSIAITAGASAPELLVNEVIDAFRDRYEVTVELVETAVERVEFKVPRVLRTA	not soluble
